Source: patent US20210040175A1

Molecular target: human CD20 (human) (UniProt P11836)
Assay: cell-based or functional assay

Sequence of UniProt P11836 (P11836 whole entry): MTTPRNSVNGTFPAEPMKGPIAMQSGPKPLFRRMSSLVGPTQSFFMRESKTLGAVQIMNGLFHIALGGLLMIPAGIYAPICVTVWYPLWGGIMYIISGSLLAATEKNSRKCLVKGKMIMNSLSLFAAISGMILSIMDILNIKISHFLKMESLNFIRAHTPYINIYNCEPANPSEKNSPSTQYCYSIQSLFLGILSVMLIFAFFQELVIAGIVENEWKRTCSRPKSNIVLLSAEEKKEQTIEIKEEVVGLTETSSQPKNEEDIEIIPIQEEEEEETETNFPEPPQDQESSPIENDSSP

ADCC by haNK cells for SUP-B15^CD20 at the highest 10:1 ET ratio: 60%
Substance: Rituximab (antibody)
